Assay results reported in US20220227846A1 (TEMPLE UNIVERSITY OF THE COMMONWEALTH SYSTEM OF HIGHER …, published 2022).

B1: ALZ.3H3 (antibody, V domains shown)
VH: QVQLVESGGGVVQPGRSLRLSCAASGFSFSTYGMHWVRQAPGKGLEWVAVISYDGSRKYYADTGKGRFTISRDNSKNTLYLEMNGLRAEDTAVYHCAKDLRRELGFGNRDYHYYGMDAWGQGTTVTVSS
VL: LTQPRSVSGSPGQSVTMSCTGTNSDIGGYNYVSWYQQHPGKAPKLMIYDVYKRPSGVPDRFSGSKSGNTASLTISGLQAEDEADYYCCSYAGTNNLIFGGGTKLTVLG
B2: ALZ.4G1 (antibody, V domains shown)
VH: EEHLVESGGALVQPGGSLRLSCEASGFTFRSYWMTWVRQAPGKGLEWLANIKQDGSDYYYVDSVKGRFTISRDNAKNTLYLQMNNLRADDTAVYFCARDARYRDTTWPQYYFYYFMDVWGKGTTVTVSS
VL: DIQLTQSPSSLSASIGDRVTVTCRASQSISNYLNWYQQKPGKAPKLLIYAASNLHTGVPSRFSGSGSGTHFTLTISSLQPEDFATYYCQLSYNNPRTFGPGTTVDIR
notes: Human mAb cloned from hybridomas made from B cells of a patient with Alzheimer's Disease
B3: ALZ.4A6 (antibody, V domains shown)
VH: QVQLVQSGAEVKKPGASMRVSCKASGYTYTAYYIHWMRQAPGQGLEWMGWINPHIGSTNYAEKFRGRVTLTRDTSIKTAYMDLDRLTSDDTAIYYCARVRAPRSISGTLNSYGMDVWGQGTTVAVSS
VL: DIVMTQSPSSLSASVGDRVVITCRASLRIGTFLNWYQQTQGRAPKLLVSSASTLQSGVPSRFSGSGSGTDFTLTINSLQPEDFATYYCQQSYSTTWTFGQGTKVELK
notes: as for B2

What was measured:
Assay in all cases: SPR, calculated KD (Qdat software)
[1] = target: T1, N-terminal biotinylated Aβ42 monomers (UniProt P05067 672-713, N-terminal biotin)
T1 construct: domain: Aβ42; also called NTB mono
T1 sequence (P05067 672-713 limits assumed): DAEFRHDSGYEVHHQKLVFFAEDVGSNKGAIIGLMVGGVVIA
Description: (§1) MAb binding to Aβ42 conformers was measured by surface plasma resonance (SPR) (Table 1). Calculated affinity constants (KD) were obtained using Qdat software. […] The 3H3 binding data is qualitatively most similar to the 4G1 and 6E10 mAbs. 4A6 and 2C10 preferentially bind Aβ fibrils.

[2] = target: T2, Aβ42 oligomers (ADDLs/globulomers) (UniProt P05067 672-713)
T2 construct: domain: Aβ42; Oligomeric conformer of Aβ42; also called amyloid beta derived diffusible ligands
T2 sequence (P05067 672-713 limits assumed): as above
Description: as §1

Aβ42 fibrils = target: T3, Aβ42 fibrils (UniProt P05067 672-713)
T3 construct: domain: Aβ42; Fibrillar conformer of Aβ42; also called Aβ fibrils
T3 sequence (P05067 672-713 limits assumed): as above
Description: as §1

[3] = target: T4, C-terminal biotinylated Aβ42 ADDLs/globulomers (UniProt P05067 672-713, C-terminal biotin)
T4 construct: domain: Aβ42; also called CTB oligo
T4 sequence (P05067 672-713 limits assumed): as above
Description: as §1

[4] = target: T5, C-terminal biotinylated Aβ42 monomers (UniProt P05067 672-713, C-terminal biotin)
T5 construct: domain: Aβ42; also called CTB mono
T5 sequence (P05067 672-713 limits assumed): as above
Description: as §1

Row | Binder | Kd [1] [µM] | Kd [2] [µM] | Kd (Aβ42 fibrils) [µM] | Kd [3] [µM] | Kd [4] [µM]
1 | B1 | 0.24 | 0.04 | 0.0021 | 0.035 | 0.0034
2 | B2 | 1.7 | 0.0088 | 0.014 | 0.0114 | 0.015
3 | B3 |  | 1.3 | 0.011 |  | 0.016
